Key:
[1] = biological target: HLA-A*02:06; assay: IEDB peptide-MHC binding, cellular MHC/competitive/fluorescence; ≥ and ≤ were set here for values at or beyond the usual limits of such assays
[2] = biological target: HLA-A*68:02; assay: as above
[3] = biological target: HLA-A*02:01; assay: as above
[4] = biological target: HLA-A*02:02; assay: IEDB peptide-MHC binding, purified MHC/competitive/radioactivity; ≥ and ≤ were set here for values at or beyond the usual limits of such assays
[5] = biological target: HLA-A*02:03; assay: as above
[6] = biological target: HLA-A*02:02; assay: IEDB peptide-MHC binding, cellular MHC/competitive/fluorescence; ≥ and ≤ were set here for values at or beyond the usual limits of such assays; details: source organism: Vaccinia virus WR
[7] = biological target: HLA-A*02:06; assay: IEDB peptide-MHC binding, purified MHC/competitive/radioactivity; ≥ and ≤ were set here for values at or beyond the usual limits of such assays; details: source organism: Vaccinia virus WR
[8] = biological target: HLA-A*68:02; assay: as above; details: source organism: Vaccinia virus WR
[9] = biological target: HLA-A*02:01; assay: as above; details: source organism: Vaccinia virus WR
[10] = source organism: Vaccinia virus WR
[11] = source organism: Influenza A virus

Sequence | IC50 [1, 10] [µM] | IC50 [2, 10] [µM] | IC50 [3, 10] [µM] | IC50 [4, 10] [µM] | IC50 [5, 10] [µM] | IC50 [6] [µM] | IC50 [7] [µM] | IC50 [8] [µM] | IC50 [9] [µM] | IC50 [1, 11] [µM] | IC50 [2, 11] [µM] | IC50 [3, 11] [µM] | IC50 [4, 11] [µM] | IC50 [5, 11] [µM]
DTIAHINTLI | 62.7 | ≥ 70 | 10.3 | 1.16 | 0.114 | – | – | – | – | – | – | – | – | –
NMKPNFWSRI | 13.9 | 13.1 | 23.4 | 1.68 | 0.193 | – | – | – | – | – | – | – | – | –
RLRQDTEDIV | 7.49 | 35.5 | 5.95 | 0.134 | 0.284 | – | – | – | – | – | – | – | – | –
LLKETIQKDI | 23.4 | 13.2 | 9.03 | 3.06 | 0.782 | – | – | – | – | – | – | – | – | –
IVAAVIIMA | – | – | – | – | 2.66 | 10.4 | 3.57 | 0.024 | 1.81 | – | – | – | – | –
GIKGLDERFV | – | – | – | – | 0.844 | 6.19 | 0.94 | 0.492 | 4.39 | – | – | – | – | –
PLSINVSGV | 17.9 | 22.5 | 6.54 | 1.12 | 0.045 | – | – | – | – | – | – | – | – | –
EMKYALINLV | 9.84 | ≥ 70 | 7.36 | 1.26 | 0.283 | – | – | – | – | – | – | – | – | –
YIENTNQGNI | 6.2 | 42 | 34.5 | 1.22 | 0.582 | – | – | – | – | – | – | – | – | –
LIKTLSPAHL | 10.2 | 33.3 | 11.6 | 1.85 | 0.356 | – | – | – | – | – | – | – | – | –
VADLSARNKL | 35.9 | 7.04 | 23 | 1.17 | 2.16 | – | – | – | – | – | – | – | – | –
NLYISDYKML | 35.9 | 30.9 | 7.88 | 1.25 | 1.83 | – | – | – | – | – | – | – | – | –
SAFDERRNKYL | – | – | – | – | – | – | – | – | – | ≥ 70 | 14.1 | 24.3 | 1.09 | 2.48
SVGTGILFM | 20.7 | 57.4 | 5.15 | 1.09 | 2.25 | – | – | – | – | – | – | – | – | –
EISSNDNAKI | – | – | – | – | 0.194 | 11.2 | 0.162 | 0.122 | 0.508 | – | – | – | – | –
IIAVFDSKLI | 8.51 | 54.7 | 5.93 | 0.758 | 0.595 | – | – | – | – | – | – | – | – | –
GLCNYGGILI | 5.03 | 35.2 | 24.2 | 0.152 | 3.21 | – | – | – | – | – | – | – | – | –

Sequence | IC50 [1, 10] [µM] | IC50 [2, 10] [µM] | IC50 [3, 10] [µM] | IC50 [4, 10] [µM] | IC50 [5, 10] [µM] | IC50 [6] [µM] | IC50 [7] [µM] | IC50 [8] [µM] | IC50 [9] [µM] | IC50 [1, 11] [µM] | IC50 [2, 11] [µM] | IC50 [3, 11] [µM] | IC50 [4, 11] [µM] | IC50 [5, 11] [µM]
ALKNSQAELT | 27.2 | 47.4 | 51 | 2.12 | 0.98 | – | – | – | – | – | – | – | – | –
LATLNTLIT | 14.2 | 13.9 | 10.6 | 1.16 | 1.55 | – | – | – | – | – | – | – | – | –
RLTILGKDA | – | – | – | – | – | – | – | – | – | ≥ 70 | ≥ 70 | 10.9 | 1.56 | 3.51
DINVIGLIVI | – | – | – | – | 2.81 | 7.15 | 2.79 | 2.19 | 1.35 | – | – | – | – | –
VLTILYYGA | 6.24 | 18.6 | – | 0.0013 | 0.018 | – | – | – | 0.212 | – | – | – | – | –
DTGKKELALT | 6.8 | 10 | – | 1.04 | 0.262 | – | – | – | 1.68 | – | – | – | – | –
SLKRFTHTT | 59.7 | 42 | 5.66 | 0.825 | 0.0091 | – | – | – | – | – | – | – | – | –
EILSNTTKTL | ≥ 70 | 15.1 | 10.1 | 0.345 | 0.101 | – | – | – | – | – | – | – | – | –
KLDDTGKKEL | 5.53 | 35.2 | – | 0.101 | 0.139 | – | – | – | 0.45 | – | – | – | – | –
GIKNLKSLL | 61.7 | ≥ 70 | 54.5 | 2.14 | 2.62 | – | – | – | – | – | – | – | – | –
RILSEKRKDT | 6.87 | 10 | 48.7 | 0.711 | 4.16 | – | – | – | – | – | – | – | – | –
YLSKEDRII | 10.5 | ≥ 70 | – | 0.305 | 0.435 | – | – | – | 1.5 | – | – | – | – | –
LMELPVKTDI | 12.9 | ≥ 70 | – | 1.51 | 0.986 | – | – | – | 1.33 | – | – | – | – | –
DMDFDLNIFM | 5.32 | 7.3 | – | 1.15 | 5 | – | – | – | 1.75 | – | – | – | – | –
MAFILGIIIT | 10.3 | 5.16 | – | 4.68 | 2.83 | – | – | – | 0.663 | – | – | – | – | –
LLEMKYALI | 14.9 | 35.8 | – | 0.354 | 0.135 | – | – | – | 2.54 | – | – | – | – | –

From the Immune Epitope Database (IEDB)
